# T1: human Trop-2-ECD-6His fusion protein (Homo sapiens, UniProt P09758)
# T1 construct: made in house; host or cells: human 293 cell line
# T1 sequence (P09758 with tags, fused parts or gaps): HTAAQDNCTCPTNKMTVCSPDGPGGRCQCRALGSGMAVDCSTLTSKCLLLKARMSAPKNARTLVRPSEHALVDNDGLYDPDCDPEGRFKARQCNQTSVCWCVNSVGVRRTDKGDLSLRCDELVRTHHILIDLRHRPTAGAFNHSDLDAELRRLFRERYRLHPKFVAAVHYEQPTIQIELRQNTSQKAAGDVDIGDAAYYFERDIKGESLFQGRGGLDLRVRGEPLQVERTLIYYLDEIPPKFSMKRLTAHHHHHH
# T2: human Trop-2ECD-6His (Homo sapiens, UniProt P09758)
# T2 construct: made in house; host or cells: human 293 cell line
# T2 sequence (P09758 with tags, fused parts or gaps): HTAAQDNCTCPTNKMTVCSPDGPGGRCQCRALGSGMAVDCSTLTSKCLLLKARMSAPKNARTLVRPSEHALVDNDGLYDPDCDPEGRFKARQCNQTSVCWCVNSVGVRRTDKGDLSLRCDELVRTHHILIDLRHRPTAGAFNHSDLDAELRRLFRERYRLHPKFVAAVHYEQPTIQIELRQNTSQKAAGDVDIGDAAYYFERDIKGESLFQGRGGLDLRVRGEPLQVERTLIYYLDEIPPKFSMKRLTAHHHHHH
# T3: mouse Trop-2-His (Mus musculus, UniProt Q8BGV3)
# T3 sequence (Q8BGV3 25-317): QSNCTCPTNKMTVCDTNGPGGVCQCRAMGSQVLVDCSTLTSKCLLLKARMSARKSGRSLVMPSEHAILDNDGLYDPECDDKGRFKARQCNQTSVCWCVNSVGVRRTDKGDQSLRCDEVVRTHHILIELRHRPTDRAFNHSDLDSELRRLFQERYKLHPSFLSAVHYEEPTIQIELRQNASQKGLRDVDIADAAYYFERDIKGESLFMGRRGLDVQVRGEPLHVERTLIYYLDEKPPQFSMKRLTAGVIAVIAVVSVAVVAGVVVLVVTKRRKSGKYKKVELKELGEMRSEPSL
# T4: human EPCAM-His (Homo sapiens, UniProt P16422)
# T4 sequence (P16422 24-314): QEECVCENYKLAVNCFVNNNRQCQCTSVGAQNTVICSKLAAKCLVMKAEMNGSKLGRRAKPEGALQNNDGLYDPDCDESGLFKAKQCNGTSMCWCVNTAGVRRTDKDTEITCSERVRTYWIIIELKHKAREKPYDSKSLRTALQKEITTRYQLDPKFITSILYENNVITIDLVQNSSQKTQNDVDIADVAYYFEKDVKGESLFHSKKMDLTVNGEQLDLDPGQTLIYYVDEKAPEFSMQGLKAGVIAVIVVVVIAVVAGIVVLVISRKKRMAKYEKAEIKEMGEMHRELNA
# T5: human Trop-2-ECD-6His fusion protein (human, UniProt P09758 27-274)
# T5 construct: Expressed in a human 293 cell line; also called huTrop-2; human Trop-2 antigen
# T5 sequence: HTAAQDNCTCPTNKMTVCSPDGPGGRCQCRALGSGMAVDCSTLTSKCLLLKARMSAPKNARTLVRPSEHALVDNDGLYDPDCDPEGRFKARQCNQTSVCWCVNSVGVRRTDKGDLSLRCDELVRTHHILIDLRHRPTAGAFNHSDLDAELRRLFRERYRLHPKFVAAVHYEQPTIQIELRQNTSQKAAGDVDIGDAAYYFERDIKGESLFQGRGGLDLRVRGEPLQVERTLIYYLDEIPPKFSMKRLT
# T6: mouse Trop-2-His (mouse, UniProt Q8BGV3 25-270)
# T6 sequence (looked up): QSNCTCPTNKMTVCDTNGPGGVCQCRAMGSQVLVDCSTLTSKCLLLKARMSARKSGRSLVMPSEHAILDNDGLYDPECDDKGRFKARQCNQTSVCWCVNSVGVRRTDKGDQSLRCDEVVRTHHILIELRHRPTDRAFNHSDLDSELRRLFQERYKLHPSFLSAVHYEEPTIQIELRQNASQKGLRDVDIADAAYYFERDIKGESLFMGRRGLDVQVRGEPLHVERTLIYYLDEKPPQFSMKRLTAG
# T7: human EPCAM-His (human, UniProt P16422 24-265)
# T7 construct: also called hEPCAM
# T7 sequence (looked up): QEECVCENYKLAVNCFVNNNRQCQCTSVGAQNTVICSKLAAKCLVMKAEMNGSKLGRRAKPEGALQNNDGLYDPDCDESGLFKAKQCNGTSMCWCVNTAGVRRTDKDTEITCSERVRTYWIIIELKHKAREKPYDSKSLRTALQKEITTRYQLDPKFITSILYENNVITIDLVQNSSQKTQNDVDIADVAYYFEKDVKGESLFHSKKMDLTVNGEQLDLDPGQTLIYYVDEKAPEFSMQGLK
# Assays:
# [1] = target: T1, human Trop-2-ECD-6His fusion protein; experiment: Antigen binding assay (ELISA) on immobilized Trop-2-ECD-6His; details: for OD value, Conditioned Medium 1 to 1 ratio / OD value, Conditioned Medium 1 to 10 ratio: Table 3, ELISA absorbance at 405 nm
# Method: Using the HCVR sequence and LCVR sequence of mAbs #118-2-5 and #125-1-5, two murine-human chimeric IgG1 (hereinafter “chimeric IgG1”) was prepared which comprised the heavy chain sequences set forth in SEQ ID NOs: 47 and 49, and the light chain sequences set forth in SEQ ID NOs: 48 and 50. Nucleic acids encoded by SEQ ID NO: 19, 20 and SEQ ID NO: 21, 22 were amplified and inserted into pTT5 to make an expression plasmid of the full-length IgG. The heavy chain and light chain expression plasmids were used to co-transfect 100 mL HEK293-6E cells. The recombinant IgG secreted into to media was purified using protein A affinity. The purified IgG migrated as ~150 kDa band in SDS-PAGE under non-reducing conditions, ~55 kDa and ~30 kDA bands under reducing condition. The purity of the chimeric IgG is >90%. The binding affinity between the chimeric IgGs and a human Trop-2-ECD-6His fusion protein (SEQ ID NO:2) was determined by ELISA. The Trop-2-ECD-6His fusion protein was immobilized on the surface of a microplate wells and incubated with the chimeric IgGs. A secondary enzyme-labeled goat-anti-mouse IgG-AP was then added. After washing, the activity of the microplate well-bound enzyme was measured by adding the substrate. Color development and absorbance at 405 nm were read.
# [2] = test system: Trop-2 positive breast cancer cell line MDA-MB-468; experiment: Internalization assay by flow cytometry (Example 2 protocol); type: cell-based, human; details: Table 4; chimeric IgGs; 2 hours at 37° C.; 100 × (MFI4°C - MFI37°C) / MFI4°C
# Method: The chimeric IgG1 #118-2-5 and #125-1-5 were further evaluated by internalization assay using Trop-2 positive breast cancer cell line MDA-MB-468. MDA-MB-468 cells were seeded at 1×10^5 cell/well. Next, the chimeric or benchmark IgGs were added to cells in FACS buffer and incubated for 2 hours at 4° C. After incubation, the cells were washed to remove unbound antibody. The cells were then incubated at 37° C. After 2 hours, the cells were dissociated and stained with fluorescent-conjugated […] secondary antibodies for 30 minutes on ice in dark before being analyzed using Beckman flow cytometry system. The fluorescent intensity and cell binding percentage at each time point were analyzed by Beckman flow cytometric software. The amount of chimeric IgGs internalized into cells was determined using the following formula: % internalization rate = 100 × (MFI4°C - MFI37°C) / MFI4°C.
# human Trop-2ECD-6His = target: T2, human Trop-2ECD-6His; experiment: Cross-reactivity ELISA, human Trop-2; type: binding; details: plate coated with 1 µg/mL antigen
# Method: (§1) Cross-reactivity of chimeric IgG #118-2-5 and #125-1-5 to the Trop-2 antigens from different species was assessed by ELISA. In this experiment, a microtiter plate was coated overnight at 4° C. with 50 µL/well of 1 µg/mL human Trop-2ECD-6His, mouse Trop-2-His, cynomolgus Trop-2-His, human EPCAM-His, and a non-related protein. The plate was washed and blocked for 1 hr at 37° C., and then washed with wash buffer. Purified chimeric IgGs appropriately diluted in PBS were added to wells and incubated for 1 hr at 37° C. After washing, bound antibodies were detected using HRP-conjugated goat-anti-human IgG Ab. Color development and absorbance at OD450 nm were read. A non-specific mock mouse IgG and a non-specific mock human IgG were included as the negative controls, while anti-His antibody was used as a positive control.
# (§2) The cross-reactivity of purified IgGs to the Trop-2 antigens from different species was tested by ELISA. In this experiment, a microtiter plate was coated overnight at 4° C. with 50 µL/well of 1 µg/mL human Trop-2ECD-6His, mouse Trop-2-His, cynomolgus Trop-2-His, human EPCAM-His, and a non-related protein. The plate was washed and blocked for 1 hr at 37° C., and then washed with wash buffer. […] After washing, bound antibodies were detected using HRP-conjugated goat-anti-human IgG antibody. Color development and absorbance at OD450 nm were read. […]
# cynomolgus Trop-2-His = experiment: Cross-reactivity ELISA, cynomolgus Trop-2; type: binding; details: plate coated with 1 µg/mL antigen
# Method: as §1, §2
# mouse Trop-2-His [3] = target: T3, mouse Trop-2-His; experiment: Cross-reactivity ELISA, mouse Trop-2; type: binding; details: plate coated with 1 µg/mL antigen
# Method: as §1
# (§3) The cross-reactivity of purified IgGs to the Trop-2 antigens from different species was tested by ELISA. In this experiment, a microtiter plate was coated overnight at 4° C. with 50 µL/well of 1 µg/mL human Trop-2ECD-6His, mouse Trop-2-His, cynomolgus Trop-2-His, human EPCAM-His, and a non-related protein. The plate was washed and blocked for 1 hr at 37° C., and then washed with wash buffer. Purified anti-Trop-2 antibodies appropriately diluted in PBS were added to wells and incubated for 1 hour at 37° C. After washing, bound antibodies were detected using HRP-conjugated goat-anti-human IgG antibody. Color development and absorbance at OD450 nm were read. A non-specific human IgG1 was included as a negative control, while hRS7 was used as a positive control.
# human EPCAM-His [4] = target: T4, human EPCAM-His; experiment: Cross-reactivity ELISA, human EPCAM; type: binding; details: plate coated with 1 µg/mL antigen
# Method: as §1, §3
# non-related protein = experiment: Cross-reactivity ELISA, non-related protein; type: binding; details: plate coated with 1 µg/mL protein
# Method: as §1, §3
# [5] = target: T5, human Trop-2-ECD-6His fusion protein; experiment: ELISA on immobilized Trop-2-ECD-6His; control, 1 to 1 ratio
# [6] = target: T5, human Trop-2-ECD-6His fusion protein; experiment: ELISA on immobilized Trop-2-ECD-6His; control, 1 to 10 ratio
# [7] = target: human Trop-2 on Trop-2 positive cancer cells (human) (UniProt P09758); experiment: cell-based or functional assay
# [8] = target: T5, human Trop-2-ECD-6His fusion protein; experiment: antigen binding ELISA on immobilized human Trop-2-ECD-6His
# mouse Trop-2-His [9] = target: T6, mouse Trop-2-His; experiment: ELISA on coated antigen, one antibody dilution (concentration not given); on the sheet OD405, detected by GAM/H-AP
# human EPCAM-His [10] = target: T7, human EPCAM-His; experiment: as above
Molecule,"OD value, Conditioned Medium 1 to 1 ratio [1]","OD value, Conditioned Medium 1 to 10 ratio [1]",Internalization rate [2],"binding to human Trop-2 antigen (ELISA, OD450 nm) (human Trop-2ECD-6His)","binding to cynomolgus Trop-2 antigen (ELISA, OD450 nm) (cynomolgus Trop-2-His)","recognition of mouse Trop-2 (ELISA, OD450 nm) (mouse Trop-2-His [3])","recognition of hEPCAM (ELISA, OD450 nm) (human EPCAM-His [4])","recognition of the non-related protein (ELISA, OD450 nm) (non-related protein)",also measured
hRS7: anti-Trop2 antibody used in sacituzumab govitecan (IMMU-132); used as a benchmark antibody [reference compound],1.339,1.457,17.62%,able to bind,able to bind,some non-specific binding,some non-specific binding,some non-specific binding,"recognition of mouse Trop-2 (ELISA, OD450 nm) (mouse Trop-2-His [3]; listed as benchmark IgG): did not recognize; recognition of hEPCAM (ELISA, OD450 nm) (human EPCAM-His [4]; listed as benchmark IgG): did not recognize; recognition of the non-related protein (ELISA, OD450 nm) (non-related protein; listed as benchmark IgG): did not recognize"
BSA (from UniProt P02769 25-607),–,–,–,–,–,–,–,–,OD (absorbance at 405 nm) [5]: 0.059 OD; OD (absorbance at 405 nm) [6]: 0.058 OD
"humanized IgG #118-2-5 Hu(A1)/LuX (antibody, V domains shown, Second round of humanization) VH: QVQLQESGPGLVKPSETLSLTCTVSGFSLTSYGVNWIRQPPGKGLEWIGVMWAGGSTNYNSALMSRVTISVDTSKNQFSLKLSSVTAADTAVYYCARDENWDGAWFAYWGQGTLVTVSS VL: DIVMTQSPDSLAVSLGERATINCKSSQSLLNSGTRKNYLAWYQQKPGQPPKLLIYWASSRESGVPDRFSGSGSGTDFTLTISSLQAEDVAVYYCKQSYNLFTFGGGTKVEIK",–,–,–,–,–,–,–,–,"Internalization rate (flow cytometry, MDA-MB-468 cells) [7]: 56%; EC50 [8]: 0.28 nM"
"murine-human chimeric IgG1 #125-1-5 (antibody, V domains shown, Chimeric IgG1 expressed in HEK293-6E cells) VH: QIQLVQSGPELVKPGASVKMSCKASGYTFTTYVIHWVKQKPGQGLEWIGYINPNNDGTKYNEKFKGKATLISDKSSTTAYMEVRGLTSEDSAVYYCARPHFETHAMDYWGQGTSVTVSS VL: DIQMTQSPSSFSVSLGDSVTITCKASEDIFNRLAWYQQKPGNAPRLLISGATSLETGVPSRFSGGGSGKEYTLSITSLQNEDVATYYCQQYWNTWTFGGGTKLEIKR",–,–,–,–,–,–,–,–,binding result (mouse Trop-2-His [9]): no binding; binding result (human EPCAM-His [10]): no binding
"#125-1-5 (antibody, listed as Mus musculus, V domains shown) VH: QIQLVQSGPELVKPGASVKMSCKASGYTFTTYVIHWVKQKPGQGLEWIGYINPNNDGTKYNEKFKGKATLISDKSSTTAYMEVRGLTSEDSAVYYCARPHFETHAMDYWGQGTSVTVSS VL: DIQMTQSPSSFSVSLGDSVTITCKASEDIFNRLAWYQQKPGNAPRLLISGATSLETGVPSRFSGGGSGKEYTLSITSLQNEDVATYYCQQYWNTWTFGGGTKLEIK",1.572,1.539,4.70%,able to bind,able to bind,did not recognize,did not recognize,did not recognize,"binding affinity to Trop 2 compared with benchmark hRS7 ([1]; in words, chimeric IgGs, see OD value in Table 3): higher binding affinity than the benchmark reference antibody hRS7"

# — US20230235080A1, “TROPHOBLAST CELL-SURFACE ANTIGEN-2 (TROP-2) ANTIBODIES” (Bionecure Therapeutics, Inc., priority 2020, published 2023)
